For orientation: EC50 means the concentration at which the effect is half-maximal. A high value points to weaker potency.

The target in assay [1] is T1, ヒト組織因子経路インヒビター (human TFPI) (human, UniProt P10646 29-304, limits assumed).
T1 construct: Coated on Maxisorp plates (ELISA) or amine-coupled to a CM5 chip (Biacore); also called ヒトTFPI; hTFPI
T1 sequence (looked up): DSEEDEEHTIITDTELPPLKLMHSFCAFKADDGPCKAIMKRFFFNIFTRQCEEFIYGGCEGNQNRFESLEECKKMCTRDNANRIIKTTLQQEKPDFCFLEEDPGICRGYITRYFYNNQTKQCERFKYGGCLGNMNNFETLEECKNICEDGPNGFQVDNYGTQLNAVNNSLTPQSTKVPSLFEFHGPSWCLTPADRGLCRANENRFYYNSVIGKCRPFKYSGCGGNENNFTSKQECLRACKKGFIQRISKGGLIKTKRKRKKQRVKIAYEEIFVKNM
The experiment in a line: ELISA, Fab in bacterial lysate on human TFPI-coated plate. A general note: In an ELISA, binding on a coated surface is turned into a signal by an enzyme label.

Assay [2] concerns the target T2, マウスTFPI (mouse TFPI) (mouse, UniProt O54819 29-289, limits assumed).
T2 construct: Coated on plates (ELISA) or amine-coupled to a CM5 chip (Biacore); also called mTFPI; m-TFPI
T2 sequence (looked up): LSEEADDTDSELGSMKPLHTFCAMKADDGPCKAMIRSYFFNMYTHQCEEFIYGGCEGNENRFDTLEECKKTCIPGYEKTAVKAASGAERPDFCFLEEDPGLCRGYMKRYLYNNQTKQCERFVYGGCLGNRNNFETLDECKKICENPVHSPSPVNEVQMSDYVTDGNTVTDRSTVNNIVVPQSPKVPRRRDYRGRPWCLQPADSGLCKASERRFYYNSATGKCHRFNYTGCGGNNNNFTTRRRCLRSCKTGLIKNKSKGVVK
Kind of assay: ELISA on mouse TFPI-coated plate.

Assay [3] has as its target T1, ヒト組織因子経路インヒビター (human TFPI). Kind of assay: ELISA on human TFPI-coated plate.
The target is the same in assay [4]. Kind of assay: ELISA on human TFPI-coated plate; IgG against the Fab.
Assay [5] concerns the target T2, マウスTFPI (mouse TFPI). Kind of assay: ELISA on mouse TFPI-coated plate; IgG against the Fab.

B1: TP-3F1 (Fab, V domains shown)
VH: QVQLVQSGAEVKKPGESLKISCKGSGYSFTDYWIGWVRQMPGKGLEWMGIIQPSDSDTNYSPSFQGQVTISADKSISTAYLQWSSLKASDTAMYYCARFMWWGKYDSGFDVWGQGTLVTVSS
VL: DIELTQPPSVSVAPGQTARISCSGDNIGSYFASWYQQKPGQAPVLVIYDDSNRPSGIPERFSGSNSGNTATLTISGTQAEDEADYYCEGSNVFGGGTKLTVLG
notes: Human Fab (HuCal Gold), made in E. coli TG1
Turning to B1, in assay [1], the binding result was “binds”.

B2: TP-3G1 (Fab, V domains shown)
VH: QVQLQQSGPGLVKPSQTLSLTCAISGDSVSSNSGGWGWIRQSPGRGLEWLGLIYYRSKWYNAYAVSVKSRITINPDTSKNQFSLQLNSVTPEDTAVYYCARYLGSNFYVYSDVWGQGTLVTVSS
VL: DIQMTQSPSSLSASVGDRVTITCRASQGISSYLHWYQQKPGKAPKLLIYGASTLQSGVPSRFSGSGSGTDFTLTISSLQPEDFATYYCQQQNGYPFTFGQGTKVEIKR
notes: as for B1
Consider B2, for which the binding result in assay [1] was “binds”.

B3: TP-2B1 (Fab, V domains shown)
VH: QVQLVESGGGLVQPGGSLRLSCAASGFTFSSYSMSWVRQASGKGLEWVSSIKGSGSNTYYADSVKGRFTISRDNSKNTLYLQMNSLRAEDTAVYYCARNGGLIDVWGQGTLVTVSS
VL: DIELTQPPSVSVAPGQTARISCSGDNLGNKYAHWYQQKPGQAPVLVIYYDNKRPSGIPERFSGSNSGNTATLTISGTQAEDEADYYCQSWTPGSNTMVFGGGTRLTVLG
notes: as for B1
For the molecule B3, the binding result in assay [1] was “binds”.

B4: TP-2B4 (Fab, V domains shown)
VH: QVQLVESGGGLVQPGGSLRLSCAASGFTFSNYSMTWVRQAPGKGLEWVSGISYNGSNTYYADSVKGRFTISRDNSKNTLYLQMNSLRAEDTAVYYCARIYYMNLLAGWGQGTLVTVSS
VL: DIELTQPPSVSVAPGQTARISCSGDALGTYYAYWYQQKPGQAPVLVIYGDMNRPSGIPERFSGSNSGNTATLTISGTQAEDEADYYCQSYDAGVKPAVFGGGTKLTVLG
notes: as for B1
With B4, the binding result in assay [1] is recorded as “binds”.

B5: TP-3G3 (Fab, V domains shown)
VH: QVQLVESGGGLVQPGGSLRLSCAASGFTFSSYSMSWVRQAPGKGLEWVSSISSSSSNTYYGDSVKGRFTISRDNSKNTLYLQMNSLRAEDTAVYYCARMHYKGMDIWGQGTLVTVSS
VL: DIQMTQSPSSLSASVGDRVTITCRASQNIHSHLNWYQQKPGKAPKLLIYDASSLQSGVPSRFSGSGSGTDFTLTISSLQPEDFAVYYCQQYYDYPLTFGQGTKVEIKR
notes: as for B1
Take B5: the binding result in assay [1] is reported as “binds”.

B6: TP-3E1 (Fab, V domains shown)
VH: QVQLVESGGGLVQPGGSLRLSCAASGFTFSNYAMTWVRQAPGKGLEWVSVISSVGSNTYYADSVKGRFTISRDNSKNTLYLQMNSLRAEDTAVYYCARPTKAGRTWWWGPYMDVWGQGTLVTVSS
VL: DIELTQPPSVSVAPGQTARISCSGDNIGSYYAYWYQQKPGQAPVLVIYDDSNRPSGIPERFSGSNSGNTATLTISGTQAEDEADYYCQSYDSTGLLVFGGGTKLTVLG
notes: as for B1
As for B6, in assay [1], the binding result is listed as “binds”.

B7: TP-4A7 (Fab, V domains shown)
VH: QVQLVESGGGLVQPGGSLRLSCAASGFTFRNYAMNWVRQAPGKGLEWVSVISGSSSYTYYADSVKGRFTISRDNSKNTLYLQMNSLRAEDTAVYYCARADLPYMVFDYWGQGTLVTVSS
VL: DIELTQPPSVSVAPGQTARISCSGDALGSKFAHWYQQKPGQAPVLVIYDDSERPSGIPERFSGSNSGNTATLTISGTQAEDEADYYCQAYDSGLLYVFGGGTKLTVLG
notes: as for B1
Regarding B7, the binding result in assay [1] is listed as “binds”.

B8: TP-2B3 (Fab, V domains shown)
VH: QVQLQQSGPGLVKPSQTLSLTCAISGDSVSSNSAAWGWIRQSPGRGLEWLGMIYYRSKWYNSYAVSVKSRITINPDTSKNQFSLQLNSVTPEDTAVYYCARTMSKYGGPGMDVWGQGTLVTVSS
VL: DIVLTQSPATLSLSPGERATLSCRASQNIGSNYLAWYQQKPGQAPRLLIYGASTRATGVPARFNGSGSGTDFTLTISSLEPEDFAVYYCQQLNSIPVTFGQGTKVEIKR
notes: as for B1
Regarding B8, the binding result in assay [1] is reported as “binds”.

B9: TP-2G6 (Fab, V domains shown)
VH: QVQLQQSGPGLVKPSQTLSLTCAISGDSVSSSSAAWSWIRQSPGRGLEWLGIIYYRSKWYNDYAVSVKSRITINPDTSKNQFSLQLNSVTPEDTAVYYCARHSMVGFDVWGQGTLVTVSS
VL: DIVLTQSPATLSLSPGERATLSCRASQYVTSSYLAWYQQKPGQAPRLLIYGSSRATGVPARFSGSGSGTDFTLTISSLEPEDFATYYCQQYSSSPITFGQGTKVEIKR
notes: Human Fab (HuCal Gold), made in E. coli TG1; also called 2G6-Fab
Take B9: the figures for the EC50 (in the assay with マウスTFPI (mouse TFPI) [2]; in assay [3]) were 5.18 nM and 0.48 nM, respectively.

B10: 2G6-IgG (antibody, V domains shown)
VH: QVQLQQSGPGLVKPSQTLSLTCAISGDSVSSSSAAWSWIRQSPGRGLEWLGIIYYRSKWYNDYAVSVKSRITINPDTSKNQFSLQLNSVTPEDTAVYYCARHSMVGFDVWGQGTLVTVSS
VL: DIVLTQSPATLSLSPGERATLSCRASQYVTSSYLAWYQQKPGQAPRLLIYGSSRATGVPARFSGSGSGTDFTLTISSLEPEDFATYYCQQYSSSPITFGQGTKVEIKR
notes: also called IgG-2G6; TP-2G6 after conversion to IgG
Take B10: the EC50 with マウスTFPI (mouse TFPI) [2] was 0.51 nM; in assay [3], 0.22 nM. The “fold change of EC50 against 2G6-Fab” value in assay [4] is 2 倍; with マウスTFPI (mouse TFPI) [5], 10 倍.

B11: TP-2B8 (Fab, V domains shown)
VH: QVQLVQSGAEVKKPGASVKVSCKASGYTFTGNSMHWVRQAPGQGLEWMGTIFPYDGTTKYAQKFQGRVTMTRDTSISTAYMELSSLRSEDTAVYYCARGVHSYFDYWGQGTLVTVSS
VL: DIELTQPPSVSVAPGQTARISCSGDNLRGYYASWYQQKPGQAPVLVIYEDNNRPSGIPERFSGSNSGNTATLTISGTQAEDEADYYCQSWDSPYVHVFGGGTKLTVLG
notes: as for B1
B11: in assay [1], the binding result is given as “binds”.

B12: TP-2A8 (Fab, V domains shown)
VH: QVQLVESGGGLVQPGGSLRLSCAASGFTFRSYGMSWVRQAPGKGLEWVSSIRGSSSSTYYADSVKGRFTISRDNSKNTLYLQMNSLRAEDTAVYYCARKYRYWFDYWGQGTLVTVSS
VL: DIELTQPPSVSVAPGQTARISCSGDNLRNYYAHWYQQKPGQAPVVVIYYDNNRPSGIPERFSGSNSGNTATLTISGTQAEDEADYYCQSWDDGVPVFGGGTKLTVLG
notes: Human Fab (HuCal Gold), made in E. coli TG1; also called Fab-2A8; TP-2A8-Fab
For the molecule B12, the binding result in assay [1] was “binds”.

B13: TP-2A10 (Fab, V domains shown)
VH: QVQLVESGGGLVQPGGSLRLSCAASGFTFTSYSMNWVRQAPGKGLEWVSAISYTGSNTHYADSVKGRFTISRDNSKNTLYLQMNSLRAEDTAVYYCARAFLGYKESYFDIWGQGTLVTVSS
VL: DIELTQPPSVSVAPGQTARISCSGDKLGKKYVHWYQQKPGQAPVLVIYGDDKRPSGIPERFSGSNSGNTATLTISGTQAEDEADYYCQAWGSISRFVFGGGTKLTVLG
notes: as for B1
Regarding B13, in assay [1], the binding result is reported as “binds”.

B14: TP-3D3 (Fab, V domains shown)
VH: QVQLVESGGGLVQPGGSLRLSCAASGFTFSSYASWVRQAPGKGLEWVSGISGDGSNTHYADSVKGRFTISRDNSKNTLYLQMNSLRAEDTAVYYCARYDNFYFDVWGQGTLVTVSS
VL: DIELTQPPSVSVAPGQTARISCSGDSLGSKFAHWYQQKPGQAPVLVIYDDSNRPSGIPERFSGSNSGNTATLTISGTQAEDEADYYCSTYTSRSHSYVFGGGTKLTVLG
notes: as for B1
For B14, in assay [1], the binding result is recorded as “binds”.

B15: TP-3F2 (Fab, V domains shown)
VH: QVQLVESGGGLVQPGGSLRLSCAASGFTFSSYSMHWVRQAPGKGLEWVSGISYSSSFTYYADSVKGRFTISRDNSKNTLYLQMNSLRAEDTAVYYCARALGGGVDYWGQGTLVTVSS
VL: DIELTQPPSVSVAPGQTARISCSGDNLPSKSVYWYQQKPGQAPVLVIYGDNNRPSGIPERFSGSNSGNTATLTISGTQAEDEADYYCQSWTSRPMVVFGGGTKLTVLG
notes: as for B1
In the case of B15, in assay [1], the binding result is “binds”.

B16: TP-3C3 (Fab, V domains shown)
VH: QVQLQQSGPGLVKPSQTLSLTCAISGDSVSSNSAAWGWIRQSPGRGLEWLGVIYYRSKWYNDYAVSVKSRITINPDTSKNQFSLQLNSVTPEDTAVYYCARARAKKSGGFDYWGQGTLVTVSS
VL: DIQMTQSPSSLSASVGDRVTITCRASQSINPYLNWYQQKPGKAPKLLIYAASNLQSGVPSRFSGSGSGTDFTLTISSLQPEDFAVYYCQQLDNRSITFGQGTKVEIKR
notes: as for B1
Regarding B16, the binding result in assay [1] is recorded as “binds”.

B17: TP-4B7 (Fab, V domains shown)
VH: QVQLQQSGPGLVKPSQTLSLTCAISGDSVSSNSAAWSWIRQSPGRGLEWLGIIYKRSKWYNDYAVSVKSRITINPDTSKNQFSLQLNSVTPEDTAVYYCARWHSDKHWGFDYWGQGTLVTVSS
VL: DIVMTQSPLSLPVTPGEPASISCRSSQSLVFSDGNTYLNWYLQKPGQSPQLLIYKGSNRASGVPDRFSGSGSGTDFTLKISRVEAEDVGVYYCQQYDSYPLTFGQGTKVEIKR
notes: as for B1
As for B17, the binding result in assay [1] is given as “binds”.

B18: TP-3H2 (Fab, V domains shown)
VH: QVQLVESGGGLVQPGGSLRLSCAASGFTFNSYYMSWVRQAPGKGLEWVSNISSSGSNTNYADSVKGRFTISRDNSKNTLYLQMNSLRAEDTAVYYCARVHYGFDFWGQGTLVTVSS
VL: DIELTQPPSVSVAPGQTARISCSGDKLGKYYAYWYQQKPGQAPVLVIYGDSKRPSGIPERFSGSNSGNTATLTISGTQAEDEADYYCSSAAFGSTVFGGGTKLTVLG
notes: as for B1
On to B18, for which the binding result in assay [1] is reported as “binds”.

The values above are taken from patent JP2016028048A (dated 2016).
